Reference: patent publication US20260130997A1 (BEAM THERAPEUTICS, published 2026)
Where a chain is given by its changes, count along the chain named.

Key:
Assay in all cases: binding to mutant CD45 D1-D2 protein relative to WT CD45 D1-D2; method not given
[1] = molecular target: T1, mutant CD45 D1-D2 protein N263G, T264A (Homo sapiens, UniProt P08575 225-394, limits assumed)
T1 chain: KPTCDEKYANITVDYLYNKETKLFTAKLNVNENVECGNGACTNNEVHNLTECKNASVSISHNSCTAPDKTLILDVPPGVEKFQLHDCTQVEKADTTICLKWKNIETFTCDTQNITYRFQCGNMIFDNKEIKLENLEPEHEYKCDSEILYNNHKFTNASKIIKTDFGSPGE

[2] = molecular target: T2, mutant CD45 D1-D2 protein N263S, T264A (Homo sapiens, UniProt P08575 225-394, limits assumed)
T2 chain: T1 chain with G39S

[3] = molecular target: T3, mutant CD45 D1-D2 protein N263S, T264A, T266A (Homo sapiens, UniProt P08575 225-394, limits assumed)
T3 chain: T1 chain with G39S, T42A

[4] = molecular target: T4, mutant CD45 D1-D2 protein T264A (Homo sapiens, UniProt P08575 225-394, limits assumed)
T4 chain: T1 chain with G39N

[5] = molecular target: T5, mutant CD45 D1-D2 protein T266A, N267G (Homo sapiens, UniProt P08575 225-394, limits assumed)
T5 chain: T1 chain with G39N, A40T, T42A, N43G

[6] = molecular target: T6, mutant CD45 D1-D2 protein N286G (Homo sapiens, UniProt P08575 225-394, limits assumed)
T6 chain: T1 chain with G39N, A40T, N62G

[7] = molecular target: T7, mutant CD45 D1-D2 protein I283M (Homo sapiens, UniProt P08575 225-394, limits assumed)
T7 chain: T1 chain with G39N, A40T, I59M

[8] = molecular target: T8, mutant CD45 D1-D2 protein I283M, H285R (Homo sapiens, UniProt P08575 225-394, limits assumed)
T8 chain: T1 chain with G39N, A40T, I59M, H61R

[9] = molecular target: T9, mutant CD45 D1-D2 protein I283M, H285R, N286G (Homo sapiens, UniProt P08575 225-394, limits assumed)
T9 chain: T1 chain with G39N, A40T, I59M, H61R, N62G

[10] = molecular target: T10, mutant CD45 D1-D2 protein E259G (Homo sapiens, UniProt P08575 225-394, limits assumed)
T10 chain: T1 chain with E35G, G39N, A40T

B1: mAb U139AGL030-9 (mAb030-9) (antibody, mouse IgG1, kappa, V domains shown)
VH: EVKLLESGGGLVQPGGSLKLSCAASGFDFSRYWMSWVRQAPGKGLEWIGEINPTSSTINFTPSLKDKVFISRDNAKNTLYLQMSKVRSEDTALYYCARGNYYRYGDAMDYWGQGTSVTVSS
VL: DIALTQSPASLAVSLGQRATISCRASKSVSTSGYSYLHWYQQKPGQPPKLLIYLASNLESGVPARFSGSGSGTDFTLNIHPVEEEDAATYYCQHSRELPFTFGSGTKLEIKR
notes: In the biosensor assay the antibody was captured with Anti-Human IgG Fc Capture (AHC); also called mAb30-9; mAb039-9
[1]
  % Mutant Binding: 106%
[2]
  % Mutant Binding: 122%
[3]
  % Mutant Binding: 69.3%
[4]
  % Mutant Binding: 112%
[5]
  % Mutant Binding: 1.4%
[6]
  % Mutant Binding: 81.5%
[7]
  % Mutant Binding: 12.9%
[8]
  % Mutant Binding: 1%
[9]
  % Mutant Binding: 0.7%
[10]
  % Mutant Binding: 2.7%
